Series [1] deals with non-diabetic NOD mice. The series is described as follows: Immune phenotyping (FACS) of tissues of treated NOD mice. The class given is in vivo, mouse. The note with it: mean. The method, then:
To perform immune phenotyping, mice were euthanized with CO2 and cardiac perfusion performed with 40 ml of sterile PBS. Whole pancreas, pancreatic lymph nodes (PLN), inguinal lymph nodes (ILN), and spleen were harvested, diced into 1 mm pieces, placed in digestion buffer (RPMI 1640, lmg/ml Collagenase Type IV, 10 U/ml DNAsel, and 1% BSA), and incubated at 37° C. for 20 min shaking at 250 rpm. Pancreas samples were filtered through a 40 μm nylon strainer into a fresh 50 ml tube, and fresh media added up to 40 ml (RPMI 1640, 1% FBS, 1% Sodium Pyruvate, 1.56 ul β-mercaptoethanol). Tubes were then centrifuged at 1500 rpm for 10 min, supernatant removed, and cells resuspended in 2 ml fresh media. Resuspended cells were passed through a 40 μm nylon filter into a 15 ml round-bottomed polystyrene tube. For PLN, ILN, and spleen, digestion samples were filtered through a 40 μm nylon strainer into a 15 ml round bottom polystyrene tube, and lml of media was added. Spleen samples had supernatant removed, and lml ACK lysis buffer (Thermo Scientific A1049201) added for 2 min at room temperature. Samples were then centrifuged at 1500 rpm for 5 min, and resuspended in 1 ml media. All samples were centrifuged at 1500 rpm for 5 min, supernatant removed, and cells resuspended in FACS buffer (5% BSA in cold PBS; 0.5 ml for PLN and ILN, lml for pancreas and spleen). Staining and FACS analysis were performed as previously described (Engin et al., 2013).

The test system of series [2] is diet-induced obese (DIO) mice. The series is described as follows: a-Ab treatment of diet-induced obese mice. The class given is in vivo, mouse. The procedure: Given the essential role for appropriate beta cell function and insulin secretion in the pathogenesis of diabetes, the pancreata of FABP4 deficient (FABP4^−/−) mice were examined for beta cell mass and insulin content. Animal care and experimental procedures were performed with approval from animal care committees of Harvard University. All mice were housed on a 12-hour light/dark cycle with ad libitum access to chow (PicoLab 5058 LabDiet) and water. FABP4−/− and WT mice were littermates obtained from heterozygous breeding. High fat diet (HFD) fed mice were provided ad libitum access to HFD (60% kcal from fat; Research Diets Inc., D12492i) for 14 weeks beginning at 4 weeks of age. Pancreata and isolated islets were obtained from 7-8-week-old male mice. Blood was collected every other week for 6 hour fasting plasma insulin and FABP4 levels. For acute FABP4 treatment, 10 μg of human recombinant FABP4 (produced in-house) or sterile PBS was injected intraperitoneally. Blood was collected from the tail vein at 0, 10, 20, 30, 60, 120, 240- and 360-minutes post injection for measurement of blood glucose, plasma insulin, and FABP4 levels.
(§1) For the immunohistochemistry, pancreata were dissected and fixed in 10% zinc buffered formalin for 24-48 hrs before being washed and stored in 70% ethanol. Samples were paraffin embedded, and sectioned in steps 250 μm apart. Immunostaining for insulin and glucagon was performed as described previously (Prentice et al., 2014; Rezania et al., 2014). Images of each section were acquired using Aperio Imagescope at 20× magnification. The beta- or alpha-cell area was calculated by using positive pixel count analysis (Aperio ImageScope). Islet number and size was determined by manually circling insulin positive clusters in the Aperio ImageScope software. Two blinded individuals independently performed manual analysis and insulitis scoring.
Antibodies were stored at 4° c. at a stock concentration of 10 mg/ml in PBS. WT diet-induced obese (DIO) male mice were treated twice weekly with 33 mg/kg bodyweight of a-Ab or control antibody (c-Ab) in a final volume of 150 μl, injected subcutaneously for 3 weeks after 12 weeks of high fat breeding, as described (see US20160319003, incorporated herein by reference, and Burak et al., 2015). […] Glucose tolerance test were performed as previously described (Liu, Y. et al. Cell Rep 14, 2889-2900). Briefly, both chow and high fat diet fed mice were evaluated simultaneously. Before intraperitoneal glucose tolerance tests, mice were fasted 16 hr. overnight, before injection of 0.75 g/kg body weight of glucose. Blood glucose was evaluated at 0, 15, 30, 45, 60, 90, and 120-min post-injection.
as §1, with “Pancreata were” for “For the immunohistochemistry, pancreata were”, “for insulin, glucagon, BrdU” for “for insulin”, “and Cleaved Caspase 3” for “and glucagon”

B1: a-Ab: monoclonal antibody previously reported as CA33; heavy chain SEQ ID NO 446, light chain SEQ ID NO 447; binds FABP4 and NDPK (antibody, listed as Homo sapiens)
heavy: QSVEESGGRLVTPGTPLTLTCTVSGFSLSTYYMSWVRQAPGKGLEWIGIIYPSGSTYCASWAKGRFTISKASTTVDLKITSPTTEDTATYFCARPDNDGTSGYLSGFGLWGQGLVTVSSAKTTPPSVYPLAPGSAAQTNSMVTLGCLVKGYFPEPVTVTWNSGSLSSGVHTFPAVLQSDLYTLSSSVTVPSSTWPSETVTCNVAHPASSTKVDKKIVPRDC
light: DVVMTQTPASVSEPVGGTVTIKCGASEDISRYLVWYQQKPGQPPKRLIYKASTLASGVPSRFKGSGSGTDFTLTISDLECDDAATYYCQCTYGTYAGSFFYSFGGGTEVVVERTDAAPTVSIFPPSSEQLTSGGASVVCFLNNFYPKDINVKWKIDGSERQNGVLNSWTDQDSKDCTYSMSSTLTLTKDEYERHNSYTCEATHKTSTSPIVKSFNRNEC
For B1, the “ILN Cytotoxic T-Cells” value in series [1] (inguinal lymph nodes) was determined as 21.4%. Further, the “Spleen Cytotoxic T-Cells” value in series [1] is reported as 11.5%. The “PLN Cytotoxic T-Cells” value in series [1] (pancreatic lymph nodes) was determined as 15.7%. Besides, the “beta cell proliferation, Ki67 staining” value in series [2] (DIO model, three weeks) was “small but significant increase”. The “CC3 positive beta cells” value in series [2] (DIO model, vs controls) is listed as “profound reduction”. For the same molecule, the “glycemic excursion during glucose tolerance test (GTT)” value in series [2] (WT DIO mice, 33 mg/kg twice weekly s.c.) is “improved”. The “6 hr fasting glucose levels” value in series [2] (WT DIO mice, 33 mg/kg twice weekly s.c., three weeks) was “reduced”. For the same molecule, in series [2] (pancreata of DIO mice, 3 weeks), the beta cell mass entry is “trend towards increased” and the number of islets result is reported as “increased”. For the same molecule, the glucagon positive area entry in series [2] (pancreatic sections, DIO mice) is recorded as “significant reduction”.

Values taken from patent US20230203142A1, “TREATMENT OF METABOLIC DISORDERS THROUGH THE TARGETING OF A NOVEL CIRCULATING HORMONE COMPLEX” (The President and Fellows of Harvard College, priority 2020, published 2023).
